The values that follow come from PMC4699637, “Papillomavirus-Associated Tumor Formation Critically Depends on c-Fos Expression Induced by Viral Protein E2 and Bromodomain Protein Brd4”.

In data set [1] the target is T1, c-Jun (UniProt P05412 1-331). Description: competition; homodimer; 100-fold excess unlabeled vs N1. The conditions noted are these: protein: recombinant; chain copies: 2; blunt.
Data set [2] concerns the target T1, c-Jun. Description: EMSA; homodimer. The conditions noted are these: protein: recombinant; chain copies: 2; label: 32P; blunt.

T1 sequence (P05412 whole entry): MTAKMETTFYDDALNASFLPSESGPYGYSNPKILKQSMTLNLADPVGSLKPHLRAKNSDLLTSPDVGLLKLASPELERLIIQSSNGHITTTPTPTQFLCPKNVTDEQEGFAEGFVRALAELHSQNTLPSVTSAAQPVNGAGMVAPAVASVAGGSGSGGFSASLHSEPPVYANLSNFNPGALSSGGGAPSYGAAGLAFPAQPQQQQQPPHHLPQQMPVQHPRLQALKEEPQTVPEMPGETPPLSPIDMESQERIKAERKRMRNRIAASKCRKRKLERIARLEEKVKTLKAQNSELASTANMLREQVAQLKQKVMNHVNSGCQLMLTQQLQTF

B1: dAP CRPV URR mut (mdAP) (dsDNA)
DNA 1: GCATGCGACATATGTTACAC
DNA 2: GTGTAACATATGTCGCATGC
As to B1, the binding result in data set [1] was “no binding”.

B2: dAP CRPV URR WT (dsDNA)
DNA 1: GCATGCGATGACACATTACAC
DNA 2: GTGTAATGTGTCATCGCATGC
With B2, the binding result in data set [2] is “binds”.
